Assay results: publication PMC4820698

Assays:
[1] = target: MBP-5-HT3A-ICD fusion protein (cytoplasmic domain of the mouse 5-HT3A receptor fused to the C-terminus of maltose binding protein) (mouse); assay: SEC-MALS; Superdex 200 HR 10/300 GL, 20 mM HEPES, 150 mM NaCl, 5 mM maltose, 0.01% NaN3, pH 7.4, ambient temperature, 0.1-1.0 mg protein loaded
[2] = target: MBP-5-HT3A-ICD fusion protein (cytoplasmic domain of the mouse 5-HT3A receptor fused to the C-terminus of maltose binding protein) (mouse); assay: cross-linking; glutaraldehyde by vapor diffusion at 30 °C, 0.5 μg purified protein in buffer B; resolved by SDS-PAGE with Western blot (anti-MBP) or denaturing capillary gel electrophoresis
[3] = target: MBP-5-HT3A-ICD fusion protein (cytoplasmic domain of the mouse 5-HT3A receptor fused to the C-terminus of maltose binding protein) (mouse); assay: SEC; Superdex 200 10/300 GL, 20 mM HEPES, 150 mM NaCl, 0.02% NaN3, pH 7.4; weight from calibration with standard proteins

Measured: stoichiometry N

MBP-5-HT3A-ICD fusion protein (cytoplasmic domain of the mouse 5-HT3A receptor fused to the C-terminus of maltose binding protein) (domain or fragment)
5: all assays above
